From patent CN116655791A (ZHEJIANG CHUQI BIOLOGICAL TECH CO LTD, dated 2023)

Molecular target: T1, 人泌乳素受体-ECD蛋白 (25-234aa, Factor Xa site, 6xHis) (human)
T1 chain: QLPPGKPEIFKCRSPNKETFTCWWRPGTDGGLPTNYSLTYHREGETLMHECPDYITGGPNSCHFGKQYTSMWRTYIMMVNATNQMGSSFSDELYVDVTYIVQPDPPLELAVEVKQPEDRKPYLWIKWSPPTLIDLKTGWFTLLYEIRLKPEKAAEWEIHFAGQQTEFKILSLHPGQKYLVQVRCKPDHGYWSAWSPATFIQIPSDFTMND
Assay: indirect ELISA on coated PRLR-ECD

B1: 抗泌乳素受体的纳米抗体融合蛋白CQ24-Fc (Fc fusion)
chain: SQVQLVESGGGSVQAGGSLRLSCVASGYTRRGNCLGWFRQAPGKEREGVASIYASSGWTSYADSVKGRFTISLDNAKTMVYLQMNSLNPEDTAMYFCAAADTGLCGLGARIYSYWGQGTQVTVSSDKTHTCPPCPAPEAAGGPSVFLFPPKPKDTLMISRTPEVTCVVVDVSHEDPEVKFNWYVDGVEVHNAKTKPREEQYNSTYRVVSVLTVLHQDWLNGKEYKCKVSNKALPAPIEKTISKAKGQPREPQVYTLPPSREEMTKNQVSLTCLVKGFYPSDIAVEWESNGQPENNYKTTPPVLDSDGSFFLYSKLTVDKSRWQQGNVFSCSVMHEALHNHYTQKSLSLSLGK
notes: the signal peptide is left out here; also called CQ24纳米抗体; CQ24-VHH
  EC50: 4.6 ng/mL
